B1: BTBD1 (parent)
chain: FVLGKGRGAAAAGGPQRIPAHRFV

Variants of: B1
Test: protein stability index of a GFP-peptide fusion (GPS, HEK-293T) (PSI 1-6); higher = more stable
Details: c terminus: a fixed tail appended
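Further: lentivirally expressed fusions sorted by FACS into six bins by GFP to DsRed ratio, PSI derived from sequencing read proportions per bin multiplied by bin number.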

Protein stability index, by site and new letter:
R22: Q 1.84 | S 1.36 | V 2.14 | N 2.53 | M 4.76 | T 5.22 | G 1.08 | K 1.82 | H 1.72 | D 2.35
G14: Q 2.88 | K 2.83 | I 1.26 | N 1.93 | V 1.9 | M 1.88 | Y 1.07 | D 2.64 | H 1.87 | R 1.04
V2: W 1.76 | A 1.99 | L 1.97 | Q 3 | C 2.18 | T 2.35 | Y 1.8 | M 2.21 | G 2.74 | D 2.88 | E 3.38 | H 2.22 | N 3.23
A10: H 1.68 | Y 1.79 | F 2.27 | Q 2.03 | L 1.46 | K 2.08 | C 1.36 | M 1.34 | V 1.43 | T 1.91 | R 1.91 | S 2 | P 1.95 | I 1.52
V24: D 2.27 | S 2.21 | G 1.56 | M 3 | L 1.73 | R 1.8 | T 2.84 | Q 1.7
G13: F 1.3 | N 2.57 | D 2.24 | V 1.36 | L 2.14 | K 1.16 | S 2.15 | P 1.75 | E 2.31 | R 1.41 | Y 1.57
A20: T 1.74 | N 1.49 | R 1.35 | G 1.46 | Q 1.73 | S 1.53 | M 2.09 | E 2.49
R7: L 3.04 | F 1.27 | E 1.48 | V 2.06 | Y 1.72 | S 2.24 | C 3.48 | M 2.03 | T 2.23 | Q 1.82 | N 1.32 | P 1.98 | W 3.44
A11: K 1.77 | I 1.87 | E 1.94 | R 1.41 | F 1.04 | L 1.31 | T 1.52 | D 1.14 | W 2.84 | V 1.28 | S 2.58 | P 1.5
P15: W 1.03 | H 1.85 | T 2 | V 1.43 | D 1.86 | L 1.43 | K 1.06 | C 3.79 | Y 1.49 | S 1.7 | R 1.99 | N 1.52 | E 1.81
F23: M 2.58 | K 3.99 | E 2.04 | P 2.43 | S 2.93 | T 2.2 | Y 1.71 | R 1.25 | H 1.45 | C 1.08 | V 1.93
F1: H 3.4 | G 3.51 | A 2.66 | T 3.32 | Q 3.28 | W 1.95 | K 2.99 | L 2.51 | V 2.21 | R 3.35 | Y 1.26 | I 1.91 | C 2.22 | S 2.92
G8: Y 1.44 | A 1.33 | Q 1.48 | H 2.31 | K 2.02 | E 2.01 | V 1.39 | L 1.69 | P 1.55 | F 1.5 | S 1.2 | R 1.78
A9: G 1.72 | V 2.21 | C 2.47 | S 1.57 | N 1.95 | K 1.92 | Y 1.87 | F 1.28 | H 2.08 | D 2.35 | E 2.72 | P 1.6
P19: Q 2.17 | I 2.16 | A 1.34 | T 1.88 | H 1.27 | E 1.78
R17: Q 1.92 | C 1.9 | E 2.13 | L 2.01 | K 2.01 | S 1.86 | N 1.64 | F 1.28 | I 3.15 | V 2.52
L3: S 3 | Q 1.3 | C 1.67 | D 2.2 | H 2.63 | N 2.12 | V 1.61 | W 1.14 | F 1.61 | G 1.61 | T 2.01 | M 1.92 | E 1.56 | Y 1.79 | K 2.2
K5: L 1.59 | T 2.85 | H 1.95 | Y 2.95 | M 2.82 | P 1.74 | F 1.95 | D 1.89 | C 1.66 | S 1.98 | Q 1.8 | N 2.04 | I 1.75
A12: E 1.84 | C 2.54 | L 1.38 | Q 1.43 | N 1.78 | W 2.86 | K 1.82 | M 1.52 | G 2.21
I18: Y 1.74 | C 2.27 | M 2.87 | D 2.16 | F 1.93 | Q 2.03 | W 1.91 | N 2.12
H21: Q 1.91 | A 2.14 | P 1.97 | G 1.77 | L 2.61 | M 3.14 | D 2.22 | V 2.72 | T 2.72 | S 1.56 | R 2.32 | N 1.88 | F 4.04
Q16: T 1.39 | G 1.87 | M 2.2 | I 2.2 | N 2.54 | V 2.31
G4: H 2 | C 1.54 | V 2.3 | Q 1.4 | W 1.2 | K 1.64 | A 1.73 | M 1.38 | N 2.36 | Y 2.21 | S 1.61 | E 1.94 | I 1.98
G6: Q 1.91 | A 1.97 | T 1.61 | E 2.1 | I 2.4 | P 1.82 | H 1.67 | V 1.69 | R 1.78 | S 1.44 | Y 3.51 | D 1.88

Reference: the supplement of paper PMC10567573
